This is an account of results in patent US20220363781A1.

Like-named read-outs stand apart in the source and are kept apart here.

The target of test [1] is human TSLP-His (human) (UniProt Q969D9). In words: cell-based or functional assay.
For test [2] the target is unchanged. The experiment in a line: cell-based or functional assay. The source holds these as a separate data set.
Test [3] has the same target. The experiment in a line: ELISA, human TSLP-His coated, antibody titrated.
Test [4] concerns the target monkey TSLP-His (cynomolgus monkey, Macaca fascicularis) (cynomolgus monkey (Macaca fascicularis)). In words: ELISA, monkey TSLP-His coated, antibody titrated.
Test [5] has as its target human TSLP-His (human) (UniProt Q969D9). In words: ELISA, human TSLP-His coated, antibody titrated, anti-human Fc-HRP.
The target in test [6] is monkey TSLP-His (cynomolgus monkey, Macaca fascicularis) (cynomolgus monkey (Macaca fascicularis)). In words: ELISA, monkey TSLP-His coated, antibody titrated, anti-human Fc-HRP. For orientation: ELISA stands for enzyme-linked immunosorbent assay.
Test [7] addresses human TSLP-His (human) (UniProt Q969D9). In words: BLI (Fortebio), antibody on ProA sensor, human TSLP titrated, 1:1 model. In general terms: Biolayer interferometry detects binding as a change in optical thickness at a sensor tip.
For test [8] the target is unchanged. In words: BLI (Fortebio), antibody on ProA sensor, human TSLP 1.5625-100 nM, 1:1 model.
The target in test [9] is monkey TSLP-His (cynomolgus monkey, Macaca fascicularis) (cynomolgus monkey (Macaca fascicularis)). In words: BLI (Fortebio), antibody on ProA sensor, monkey TSLP 1.5625-100 nM, 1:1 model.
Another test has as its target FcRn (biotin-labeled). In words: BLI (Fortebio), biotin-FcRn on SA sensor, antibody 1.5625-200 nM, pH 6.0, 1:1 model.
Test [10] concerns the target human TSLP-His (human) (UniProt Q969D9). In words: competitive ELISA, hIL7Rα-hTSLPR-hFc coated, hTSLP-His plus titrated antibody, anti-His-HRP.
Test [11] shares this target. The experiment in a line: ELISA, human TSLP-His coated on the plate, serially diluted antibody, HRP goat anti-human Fc, absorbance at 450 nm.

Sequence of monkey TSLP-His (cynomolgus monkey, Macaca fascicularis) (cynomolgus monkey (Macaca fascicularis)) (chain, as listed by the source): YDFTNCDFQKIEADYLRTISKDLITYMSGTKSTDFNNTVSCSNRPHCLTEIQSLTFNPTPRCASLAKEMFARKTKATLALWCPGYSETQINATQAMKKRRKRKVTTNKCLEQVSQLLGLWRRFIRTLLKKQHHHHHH
Sequence of human TSLP-His (human) (Q969D9 other isoform, or with tags, fused parts or gaps limits assumed): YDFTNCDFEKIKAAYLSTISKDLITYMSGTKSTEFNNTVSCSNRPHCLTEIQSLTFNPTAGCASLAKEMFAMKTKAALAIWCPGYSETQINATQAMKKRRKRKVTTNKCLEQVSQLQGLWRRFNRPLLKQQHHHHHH
Sequence of FcRn (biotin-labeled) (P55899 24-297, chain 1 of 2): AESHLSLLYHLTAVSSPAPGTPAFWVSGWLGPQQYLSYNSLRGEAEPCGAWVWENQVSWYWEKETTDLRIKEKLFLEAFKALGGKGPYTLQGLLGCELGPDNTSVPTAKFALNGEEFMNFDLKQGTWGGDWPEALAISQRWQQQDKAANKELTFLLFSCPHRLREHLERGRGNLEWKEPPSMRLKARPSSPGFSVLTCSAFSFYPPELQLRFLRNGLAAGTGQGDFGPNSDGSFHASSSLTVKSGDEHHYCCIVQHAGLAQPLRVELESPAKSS
Sequence of FcRn (biotin-labeled) (P61769 21-119, chain 2 of 2, further chain): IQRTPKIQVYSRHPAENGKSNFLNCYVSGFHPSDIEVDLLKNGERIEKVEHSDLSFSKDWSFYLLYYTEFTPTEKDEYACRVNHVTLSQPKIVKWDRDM

What is called EC50 is the midpoint of the concentration-response curve. The Kd is a measure of binding affinity in units of concentration. As usually defined, the IC50 is the concentration needed to halve the response being measured. Usually EC50 (read off the curve) stands for the concentration needed to bring the measured effect to its halfway point. “Control antibody (control anti-TSLP antibody, chEMBL ID CHEMBL3707229)” registered an EC50, blocking human TSLP-induced proliferation of Ba/F3-hTSLPR-hIL7Rα cells (CCK8) with human TSLP-His (human) [1] of 50 pM. The substance further displayed an EC50, inhibition of human TSLP-induced PBMC secretion of MDC with human TSLP-His (human) [1] of 5.63 pM. Also, the EC50, inhibition of human TSLP-induced PBMC secretion of TARC with human TSLP-His (human) [1] came out at 510 pM. The hTSLP EC50, inhibition of the proliferation of Ba/F3-hTSLPR-hIL7Rα cells with human TSLP-His (human) [1] amounted to 41 pM; with human TSLP-His (human) [2] it was 570 pM. Moreover, the 50% effective concentration (EC50) with human TSLP-His (human) [3] amounted to 233 pM; in test [4], 336 pM; with human TSLP-His (human) [5], 1400 pM; in [6], 190 pM. The dissociation constant Kd in the test with human TSLP-His (human) [7] was 373 pM; in the test with human TSLP-His (human) [8] it was 800 pM; in [9], 1150 pM; with FcRn (biotin-labeled), 11200 pM. Besides, the IC50 in the test with human TSLP-His (human) [10] came to 930 pM. This substance returned a 50% effective concentration (EC50 (read off the curve)) with human TSLP-His (human) [11] of 0.4 µg/mL.
